Assay results as given in PMC7987009 (bioRxiv, 2021).

B1: Nb17 (VHH)
VHH: HVQLVESGGGLVQAGGSLRLSCAASGSIFSSNAMSWYRQAPGKQRELVASITSGGNADYADSVKGRFTISRDKNTVYPEMSSLKPADTAVYYCHAVGQEASAYAPRAYWGQGTQVTVSS
B2: Nb36 (VHH)
VHH: VQLVESGGGLVQAGGSLTLTCAASGRTFSSETMDMGWFRQAPGKEREFVAADSWNDGSTYYADSVKGRFTISRDSAKNTLYLQMNSLKPEDTAVYYCAAETYSIYEKDDSWGYWGQGTQVTVS
B3: Nb21 (VHH)
VHH: QVQLVESGGGLVQAGGSLRLSCAVSGLGAHRVGWFRRAPGKEREFVAAIGANGGNTNYLDSVKGRFTISRDNAKNTIYLQMNSLKPQDTAVYYCAARDIETAEYTYWGQGTQVTVSS

biological target: SARS-CoV-2 spike receptor-binding domain (RBD), wild type (SARS-CoV-2, Wuhan-Hu-1 (wild type), UniProt P0DTC2); experiment: cryo-EM structure

Row | Binder | binding result
1 | B1 | binds
2 | B2 | binds
3 | B3 | binds
